Molecular target: T1, Fz8-CRD (UniProt Q9H461 32-151, limits assumed, fluorescence-conjugated)
T1 construct: domain: CRD; also called Fzd8-CRD; frizzled (Fz8-CRD)
T1 sequence (looked up): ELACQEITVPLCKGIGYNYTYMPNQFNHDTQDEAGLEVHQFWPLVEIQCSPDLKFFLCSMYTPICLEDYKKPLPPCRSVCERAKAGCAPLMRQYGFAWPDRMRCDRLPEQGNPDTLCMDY
Experiment: yeast surface display with fluorescence-conjugated Fz8-CRD
Source text: Fz27 was expressed in a construct enabling binding to be confirmed via yeast surface display using fluorescence-conjugated Fz8-CRD.

binding result: no binding
B1: uncharacterized protein Bh1478 from Bacillus halodurans (other)
chain: MDVQRVGKAGLHRVDSKKQQTAAGVSFSEVMGKQRDEKAYERLQALMSKIDDQGKLLSETRTIEELRKYKELVKEFVGDAVELGLRLEERRGFNRRGRTKIYKIVKEVDRKLLDLTDAVLAKEKKGLDILNMVGEIKGLLINIYA
notes: also called 2QUP; wild-type scaffold
